Test results published in the RNAGym collection of RNA variant scans (doi:10.7554/elife.80360).

B1: HDV Ribozyme (parent)
chain: GGCCGGCAUGGUCCCAGCCUCCUCGCUGGCGCCGGCUGGGCAACAUUCCGAGGGGACCGUCCCCUCGGUAAUGGCGAAUGGGACCCA

Variants of: B1
Test: self-cleavage, relative activity (ratio to wild type); higher = more cleavage; co-transcriptional

Variant	self-cleavage
G17C G81U	0.193
G17C U20A	0.0573
G17A U72A	0.219
G17U C22U	0.0959
G17U C22G	0.095
G17U A71C	0.383
G17A G73C	0.0615
G17C A78G	0.0536
G17C A78C	0.0755
G17C A78U	0.18
G17U G35U	0.198
G17U G35C	0.125
G17U G35A	0.133
G17U A42C	0.125
G17U A42U	0.089
G17U A42G	0.0489
G17U U23C	0.219
G17U U23A	0.397
G17A A77U	0.138
G17A G39U	0.197
G17A G39A	0.095
G17U C32U	0.125
G17C C21G	0.145
G17U U47G	0.35

Variant	self-cleavage
G17A G68A	0.76
G17A G68U	0.659
G17A C62G	0.633
G17A C62A	0.886
G17C U65C	0.529
G17A A87G	0.745
G17A A87C	0.716
G17C C85U	0.156
G17C C85G	0.185
G17C C85A	0.388
A16U G67C	0.978
G17C A70G	0.346
G17A G40A	0.655
G17A A78C	0.268
G17C G67C	0.289
A16U G53A	1.01
G17C G28A	0.0449
G17A G82C	0.166
G17A G82U	0.346
G17A G82A	0.272
G17A C21A	0.0297
G17U C44A	0.323
G17U C44G	0.222
G17U C44U	0.146

Variant	self-cleavage
G17U G52C	0.591
G17U G52A	0.509
G17U C48U	0.458
G17C U60A	0.575
G17C C22A	0
G17C C22G	0.208
G17A G67U	0.776
G17A G55C	0.742
G17A G50C	0.502
G17A G50U	0.815
A16U U72G	0.465
G17C C49U	0.332
G17U A78U	0.0739
G17U A78C	0.131
G17U U27G	0.522
G17U U27A	0.486
A16U G40U	0.964
G17U U46G	0.0554
G17U U46A	0.111
G17U C84A	0.445
G17U C84U	0.487
A16U U20G	0.0791
G17U G50A	0.466
G17U C64A	0.601

Variant	self-cleavage
A16U G81U	0.554
A16U G81C	0.342
G17U G82A	0.543
G17C A87G	0.244
G17C C62A	0.252
G17C C62G	0.0723
G17C C48G	0.252
G17C C48A	0.388
G17A C32A	0.0852
G17U A56C	0.415
G17C C57A	0.437
G17A G81U	0.182
G17A G81C	0.204
G17C U23G	0.123
G17C C61U	0.383
G17U G38A	0.0755
G17C G39C	0.0462
G17C G39A	0.113
G17U G59C	0.432
G17U G59U	0.43
G17C U46C	0.0791
A16U G68A	1.09
A16U G68C	1.03
G17U U65C	0.332

Variant	self-cleavage
G17U U65A	0.415
G17U U65G	0.541
G17U C75U	0.181
G17U C75G	0.0594
G17U G31A	0.107
G17A U60C	0.522
G17U G39C	0.0755
G17U G39U	0.126
G17C G68U	0.425
G17C G68C	0.227
G17C G68A	0.297
G17A G53C	0.831
G17A G53A	1.02
G17A U27C	0.309
G17A U27A	0.609
G17A U27G	0.485
G17C G40A	0.19
G17C G40U	0.196
G17C C26G	0.0852
G17U C19U	0.199
G17U C19G	0
G17U C19A	0.166
G17U G25U	0.185
G17A G31U	0.102

Variant	self-cleavage
G17A G31C	0.188
G17U G28U	0.0923
G17U A77C	0.166
A16U U47A	0.639
A16U G82A	0.745
A16U G82U	1.06
A16U G82C	0.256
G17C G38U	0.0898
G17U U37G	0.0831
G17U U37A	0.185
G17U G29C	0.0773
G17U G29U	0.0554
G17U C62A	0.429
G17C A42C	0.0723
G17C A42G	0
G17C A42U	0.158
G17A U47C	0.587
G17A U47A	0.554
G17A U65C	0.671
G17A U65G	0.773
G17A U65A	0.752
G17A C24U	0.26
G17A C24A	0.089
G17A A43C	0.0369

Variant	self-cleavage
G17C C63G	0.244
G17C C63A	0.306
G17A A45G	0.755
G17A A45U	0.696
G17C U72A	0
G17C U72C	0
G17C U72G	0.161
G17C G55C	0.262
G17C G55U	0.208
G17C G55A	0.402
G17A C58U	0.588
G17U G67C	0.628
G17U G67U	0.609
G17A G35A	0.205
A16U G50U	0.889
A16U G50C	1.03
G17A C57A	0.965
G17A C57U	0.727
G17A C26G	0.793
G17A C26A	0.798
G17C C19A	0.0519
G17C C19G	0
G17A A56C	0.847
